From the supplement of paper PMC10126150
± gives the standard deviation of the averaged measurements.

Each sequence was assayed on ATP (assay: switch fluorescence ratio, 500 uM ATP over buffer (Cy3 cluster intensity, sum of 5 cycles each) (fold (ratio)); higher = stronger signal-on switching upon ATP binding; sequences stand for … in TCGTCGGCAGCGTCAGATGTGTATAAGAGACAGTTTTTTTTTTTTTTTTTTTTTTTTT…TC). Conditions: aptamer strand: ATP DNA aptamer (quencher-CACCTGGGGGAGTATTGCGGAGGAAGG + anchor), 100 nM annealed; ATP concentration: 500 uM.
Procedure, shortened: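 For every switch-domain sequence, the fluorescence ratio is the mean of per-cluster values, each being summed target-cycle Cy3 intensity over summed buffer-cycle Cy3 intensity. Clusters outside 100-1000 RFU were excluded. On a modified Illumina MiSeq flow-cell, the Cy3-labelled switching-strand clusters were annealed to 100 nM quencher-labelled ATP aptamer, imaged in selection buffer and then after 15 min with 500 uM ATP at 22 °C. Five such cycles were run, with NaOH stripping and re-annealing between them.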
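Further: ATP exposure 15 min at 22 °C before imaging.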

| Sequence | switch fluorescence ratio |
| --- | --- |
| GGGTTTATTT | 0.982 ± 0.014 |
| GGGTTTCAAT | 0.9372 ± 0.0067 |
| GGGTTTCAGC | 1 ± 0.053 |
| GGGTTTGAT | 1.03 ± 0.025 |
| GGGTTTGATG | 0.984 ± 0.035 |
| GGGTTTGGGA | 0.9899 ± 0.0088 |
| GGGTTTGGTG | 0.987 ± 0.02 |
| GGGTTTTGAA | 0.984 ± 0.021 |
| GGGTTTTGG | 0.998 ± 0.017 |
| GGGTTTTGGT | 0.978 ± 0.022 |
| GGGTTTTTGA | 1.02 ± 0.024 |
| GGGTTTTTTG | 1 ± 0.031 |
| GGTAAAAGGT | 1.02 ± 0.051 |
| GGTAAAATTT | 1 ± 0.03 |
| GGTAAAGACG | 0.992 ± 0.013 |
| GGTAAAGTTG | 1.07 ± 0.098 |
| GGTAAATATG | 1 ± 0.019 |
| GGTAAATATT | 0.9981 ± 0.0046 |
| GGTAACCGGG | 1.019 ± 0.0016 |
| GGTAACTTTG | 0.989 ± 0.031 |
| GGTAATTGGG | 1.19 ± 0.27 |
| GGTAATTTTT | 1.01 ± 0.034 |
| GGTACCAGTT | 1.01 ± 0.012 |
| GGTACCATTG | 0.991 ± 0.03 |
| GGTACCCTGG | 1.03 ± 0.014 |
| GGTACTATTT | 1 ± 0.026 |

| Sequence | switch fluorescence ratio |
| --- | --- |
| GGTACTCGGG | 0.961 ± 0.013 |
| GGTACTCGTT | 0.991 ± 0.016 |
| GGTACTCTTT | 1 ± 0.037 |
| GGTACTGGGA | 0.997 ± 0.0025 |
| GGTAGAGACT | 0.9755 ± 0.0023 |
| GGTAGAGGGC | 0.973 ± 0.061 |
| GGTAGAGTTG | 0.9758 ± 0.0062 |
| GGTAGATGTC | 1.01 ± 0.054 |
| GGTAGCGGGG | 1.02 ± 0.014 |
| GGTAGGAAAA | 0.972 ± 0.076 |
| GGTAGGAGCT | 1.02 ± 0.058 |
| GGTAGGGAGC | 0.993 ± 0.055 |
| GGTAGGGTGC | 0.985 ± 0.074 |
| GGTAGTACGG | 0.983 ± 0.014 |
| GGTAGTAGAG | 1.02 ± 0.011 |
| GGTAGTAGTA | 1 ± 0.034 |
| GGTAGTGAGT | 0.9765 ± 0.0078 |
| GGTAGTGTGG | 0.992 ± 0.023 |
| GGTATAGGCT | 0.996 ± 0.014 |
| GGTATAGGGT | 0.981 ± 0.01 |
| GGTATCGGTA | 1.005 ± 0.0094 |
| GGTATCGGTT | 0.992 ± 0.045 |
| GGTATGACCC | 1.0394 ± 0.00014 |
| GGTATGAGAC | 1.01 ± 0.044 |
| GGTATGGAGT | 1.013 ± 0.0057 |
| GGTATGGGAT | 1.022 ± 0.0059 |

| Sequence | switch fluorescence ratio |
| --- | --- |
| GGTATGGGGG | 1.02 ± 0.031 |
| GGTATGTGTT | 0.987 ± 0.04 |
| GGTATTACGT | 0.972 ± 0.032 |
| GGTATTGGGG | 1.03 ± 0.034 |
| GGTATTTACA | 1.034 ± 0.0033 |
| GGTCAAGCTG | 1 ± 0.044 |
| GGTCAGGGTC | 1.01 ± 0.062 |
| GGTCATCTTG | 0.975 ± 0.02 |
| GGTCATTTTT | 0.995 ± 0.021 |
| GGTCCAGTGA | 1.02 ± 0.023 |
| GGTCCATGGG | 0.967 ± 0.035 |
| GGTCCGCATA | 2.82 ± 1.2 |
| GGTCCGTCGT | 1.02 ± 0.038 |
| GGTCCGTTTC | 1.01 ± 0.056 |
| GGTCCTGGAC | 1.02 ± 0.019 |
| GGTCCTGGTT | 0.9859 ± 0.0021 |
| GGTCGAGGTT | 0.991 ± 0.035 |
| GGTCGCAGGG | 1 ± 0.026 |
| GGTCGCGGGT | 1 ± 0.038 |
| GGTCGGCATA | 1.01 ± 0.042 |
| GGTCGGGGAT | 1.01 ± 0.022 |
| GGTCGGTAGA | 0.998 ± 0.015 |
| GGTCGTTGAA | 1.02 ± 0.057 |
| GGTCTACAGA | 1.02 ± 0.011 |
| GGTCTACTAG | 0.999 ± 0.04 |
| GGTCTAGGGT | 1.03 ± 0.025 |

| Sequence | switch fluorescence ratio |
| --- | --- |
| GGTCTATTTT | 0.986 ± 0.023 |
| GGTCTGGTTT | 0.956 ± 0.013 |
| GGTCTTAGAA | 1.033 ± 0.0062 |
| GGTCTTGCGA | 0.9755 ± 0.0078 |
| GGTCTTTAGG | 0.99184 ± 0.00074 |
| GGTCTTTGAA | 0.979 ± 0.023 |
| GGTGAAAAGC | 1.02 ± 0.059 |
| GGTGAAGGTG | 1.355 ± 0.0092 |
| GGTGAAGTCA | 1 ± 0.024 |
| GGTGAAGTGT | 1 ± 0.0051 |
| GGTGAATGGG | 1.01 ± 0.032 |
| GGTGACGGGC | 0.978 ± 0.045 |
| GGTGAGATTA | 0.9804 ± 0.0073 |
| GGTGAGGGCA | 0.99 ± 0.015 |
| GGTGAGGGTG | 1.1 ± 0.013 |
| GGTGATACAG | 1.003 ± 0.0051 |
| GGTGATAGGA | 0.98 ± 0.034 |
| GGTGATATGT | 0.997 ± 0.018 |
| GGTGATCCTG | 0.977 ± 0.028 |
| GGTGATCTTT | 0.965 ± 0.044 |
| GGTGCAGGGG | 1.11 ± 0.023 |
| GGTGCAGGTG | 1.74 ± 0.59 |
| GGTGCATGGC | 1.04 ± 0.04 |
| GGTGCCGGGG | 1.02 ± 0.042 |
| GGTGCCGGTT | 0.997 ± 0.054 |
| GGTGCCTGTT | 1 ± 0.011 |

| Sequence | switch fluorescence ratio |
| --- | --- |
| GGTGCGCCTT | 0.958 ± 0.013 |
| GGTGCGGGTG | 1.03 ± 0.051 |
| GGTGCTAAGG | 1.02 ± 0.021 |
| GGTGCTGCTA | 0.984 ± 0.019 |
| GGTGCTTTGG | 0.993 ± 0.046 |
| GGTGCTTTTT | 0.987 ± 0.023 |
| GGTGGAAGGA | 1.02 ± 0.029 |
| GGTGGCAAAT | 1.01 ± 0.013 |
| GGTGGCCGGT | 0.987 ± 0.021 |
| GGTGGCGGAA | 0.996 ± 0.037 |
| GGTGGCGGGG | 0.987 ± 0.019 |
| GGTGGCTTGC | 1.014 ± 0.0032 |
| GGTGGGACGG | 0.991 ± 0.039 |
| GGTGGGAGGC | 0.999 ± 0.059 |
| GGTGGGATGC | 1.02 ± 0.076 |
| GGTGGGGAGC | 1 ± 0.021 |
| GGTGGGGTGC | 1.01 ± 0.046 |
| GGTGGGTGTC | 0.974 ± 0.016 |
| GGTGGGTTTG | 1.03 ± 0.024 |
| GGTGGTCAGC | 1.012 ± 0.0049 |
| GGTGGTCCCT | 0.99 ± 0.04 |
| GGTGGTGGCC | 1.01 ± 0.023 |
| GGTGGTTATC | 1.01 ± 0.021 |
| GGTGGTTATT | 0.996 ± 0.014 |
| GGTGGTTTGG | 1.023 ± 0.0045 |
| GGTGGTTTTG | 0.985 ± 0.037 |

| Sequence | switch fluorescence ratio |
| --- | --- |
| GGTGTAATGG | 1.04 ± 0.04 |
| GGTGTAGAGG | 1.012 ± 0.0022 |
| GGTGTAGCTA | 0.981 ± 0.061 |
| GGTGTAGCTT | 1.014 ± 0.0083 |
| GGTGTAGGT | 0.986 ± 0.022 |
| GGTGTATGGT | 0.985 ± 0.018 |
| GGTGTGGCTC | 1 ± 0.044 |
| GGTGTGTGGG | 1.01 ± 0.033 |
| GGTGTTAAGA | 1.01 ± 0.0043 |
| GGTGTTAGGC | 1.01 ± 0.032 |
| GGTGTTATGC | 1.01 ± 0.015 |
| GGTGTTCATG | 0.974 ± 0.024 |
| GGTGTTCTGT | 0.9665 ± 0.0089 |
| GGTGTTGCAA | 1.02 ± 0.016 |
| GGTGTTGTGG | 0.9911 ± 0.0093 |
| GGTGTTGTTC | 1.01 ± 0.014 |
| GGTGTTTAAT | 0.979 ± 0.016 |
| GGTGTTTGGA | 0.986 ± 0.0099 |
| GGTGTTTGTA | 1.005 ± 0.0094 |
| GGTGTTTTAT | 1.02 ± 0.015 |
| GGTGTTTTCA | 0.988 ± 0.026 |
| GGTGTTTTG | 0.9847 ± 0.007 |
| GGTTAAAAGG | 1 ± 0.032 |
